Positions of bridges follow the written chain, without caps; N, C: chain ends. Residues, ends and D or L forms follow the SMILES beside them. Groups on a side chain read outwards from the residue. Chains are numbered I, II in the order given. *: point of attachment. Daunorubicin(13-NOCH2CO) = COc1cccc2c1C(=O)c1c(O)c3c(c(O)c1C2=O)C[C@@](O)(C(C)=NOCC(=O)*)C[C@@H]3O[C@H]1C[C@H](N)[C@H](O)[C@H](C)O1

Experimental findings from paper PMC5456102, “NGR-peptide−drug conjugates with dual targeting properties” (PLoS ONE, 2017) are described below.

One series can be described thus: Lysosomal degradation. Format: in vitro ADME. Conditions: rat liver lysosomal homogenate, 37°C, LC-MS; for starting conjugate found after 6 h incubation in lysosomal homogenate: 0.2 M NaOAc pH 5.0, 1:1 w/w; for rate of decomposition in lysosomal homogenate / time within which the conjugate decomposed in lysosomal homogenate: 0.2 M NaOAc pH 5.0, conjugate/homogenate 1:1 w/w; for time within which the conjugate decomposed in lysosomal homogenate: conjugate 0.2 μg/μL, samples at 5 min, 72 h; for starting conjugate found after 6 h incubation in lysosomal homogenate / time within which the conjugate decomposed in lysosomal homogenate: 6 h. On the procedure:
Rat liver lysosomal homogenate was prepared as described previously. Protein concentration was determined with bicinchoninic acid (Pierce BCA protein assay) according to the manufacturer’s protocol (ThermoFisher Scientific, Rockford, IL, USA) and it was 17.4 μg/μL. Degradation of the bioconjugates in the rat liver lysosomal homogenate was determined as follows: i) bioconjugates were dissolved in d.i. water at a concentration of 4 μg/μL, ii) the solutes were further diluted to a concentration of 0.2 μg/μL with 0.2 M NaOAc (pH 5.0), iii) the rat liver lysosomal homogenate was diluted with 0.2 M NaOAc (pH 5.0) to a concentration of 3.48 μg/μL, iv) the homogenate was added to the conjugates (conjugate/lysosomal homogenate ratio = 1:1, w/w), v) the reaction mixtures were incubated at 37°C and aliquots of 13 μL were taken at 5 min, 6 h and 72 h, vi) the reactions were quenched by adding 2 μL of formic acid, followed by LC-MS analysis (Bruker Esquire 3000+; Jasco PU-2085plus system; Supelco Ascentis C18 coloum, 3 μm, 2,1 x 150 mm, 100 Å).
Conjugates for drug targeting with receptor-binding peptides may enter the cells by receptor mediated endocytosis. Endocytic vesicles fuse with lysosomes, which is followed by the degradation of the conjugates by lysosomal enzymes. Cathepsin B is one of the main lysosomal enzymes overexpressed in cancer cells. Therefore, Cathepsin B labile spacers (e.g. GFLG tetrapeptide) are often incorporated between the drug and targeting moiety. We used a rat lysosomal homogenate to study the degradation of conjugates and to follow the release of drug containing metabolites (Fig 9, S9–S14 Figs). […] In addition, a minor peak corresponding to Dau = Aoa-Gly-Phe-OH could also be detected. The peak corresponding to Dau = Aoa-GF-OH was the highest in case of conjugate 1. In contrast to these conjugates, decomposition of the disulfide bond containing conjugate (2) was much slower. […] This slow degradation might be one of the reasons why conjugate 2 is less toxic than conjugate 5, which has the same ring size. […] After 72 h only Dau = Aoa-Gly-OH could be detected in cases of all conjugates.

For a further series, the system named is HT-1080 cells. Briefly: Cellular uptake by flow cytometry. It counts as cell-based, human. Conditions: 10 μM conjugate in FBS supplemented medium, 6 h, 37°C, flow cytometry of Dau fluorescence, live cells (Zombie Violet). The procedure: (§1) HT-1080 and HT-29 cells were seeded at a 250,000 cells/well density, and were incubated overnight in their culturing media. The following day daunomycin conjugates were dissolved in culturing media (FBS supplemented), and added to the cells immediately at 10 μM final concentration. After 6 h incubation at 37°C the supernatant was removed, cells were washed with PBS and trypsinized with 0.1% trypsin (Gibco® by Life Technologies) for 10 minutes. Trypsinization was terminated with FBS containing medium, then cells were washed and suspended in serum free medium. For live/dead distinction we used Zombie Violet reagent (BioLegend, San Diego, CA). Samples were measured and analyzed with an Attune® Acoustic Focusing Cytometer (ThermoFisher Scientific).
(§2) As daunomycin-conjugates are fluorescent, we were able to follow their cellular uptake with a flow cytometer (Fig 10, S15 Fig). […] The higher uptake of 2 compared to 5 might partly compensate its slower degradation resulting in almost similar bioactivity. […] We speculate that the high cytostatic effect of 3 is explained by its fast decomposition resulting in the active Dau = Aoa-Gly-OH metabolite. […] However, after deamidation the formed isoDGR might be recognized by RGD integrin receptor, that results in moderate cytotoxicity in both cell lines during a longer treatment. […] Taking also the slow metabolite release into account, this observation explains the lack of significant cytostatic effect.
(§3) Fig 10 Direct uptake of daunomycin-conjugates. Normalized uptake values indicate the fold increase of the measured fluorescent units compared to the autofluorescence of empty cells.
On the technique in general: In flow cytometry, cells or beads pass a laser one at a time.

In another series the test system is HT-29 cells. Briefly: Cellular uptake by flow cytometry. Format: cell-based, human. Conditions: 10 μM conjugate in FBS supplemented medium, 6 h, 37°C, flow cytometry of Dau fluorescence, live cells (Zombie Violet). The procedure: as §1, §2, §3

For the compound `COc1cccc2c1C(=O)c1c(O)c3c(c(O)c1C2=O)C[C@@](O)(C(C)=NOCC(=O)NCC(=O)N[C@@H](Cc1ccccc1)C(=O)N[C@@H](CC(C)C)C(=O)NCC(=O)NCCCC[C@@H]1NC(=O)CC[C@@H](C(N)=O)NC(=O)[C@H](CCCNC(=N)N)NC(=O)CNC(=O)[C@H](CC(N)=O)NC1=O)C[C@@H]3O[C@H]1C[C@H](N)[C@H](O)[C@H](C)O1` [compound 6, [K(Dau = Aoa-GFLG)NGRE]-NH2] (K([Gly-Leu-Phe-Gly-Daunorubicin(13-NOCH2CO)])NGRE-NH2; lactam N-5), in “Lysosomal degradation”, the “starting conjugate found after 6 h incubation in lysosomal homogenate” value was “the main components were still the intact conjugates” and the “rate of decomposition in lysosomal homogenate” value is “decomposed very slowly”. Further, the “cellular uptake in HT-1080 cells” value with HT-1080 cells was “low cellular uptake”. Further, the “cellular uptake in HT-29 cells” value in the series on HT-29 cells was “low cellular uptake”.

For the compound `COc1cccc2c1C(=O)c1c(O)c3c(c(O)c1C2=O)C[C@@](O)(C(C)=NOCC(=O)NCC(=O)N[C@@H](Cc1ccccc1)C(=O)N[C@@H](CC(C)C)C(=O)NCC(=O)N[C@@H](CCCCNC(=O)CNC(=O)CNC(=O)[C@@H]1CSSC[C@H](NC(C)=O)C(=O)N[C@@H](CC(N)=O)C(=O)NCC(=O)N[C@@H](CCCNC(=N)N)C(=O)N1)C(N)=O)C[C@@H]3O[C@H]1C[C@H](N)[C@H](O)[C@H](C)O1` [compound 2, Dau = GFLGK(Ac-[CNGRC]GG)-NH2] (I: Ac-CNGRCGG / II: {Daunorubicin(13-NOCH2CO)}-GFLGK-NH2; disulfide I:1-I:5; amide I:C-II:5), in “Lysosomal degradation”, the “starting conjugate found after 6 h incubation in lysosomal homogenate” value is recorded as “the presence of the starting compound could be detected” and the “rate of decomposition in lysosomal homogenate” value is “much slower”. For the same compound, the “cellular uptake in HT-1080 cells” value with HT-1080 cells is listed as “higher accumulation”. For the same compound, in the series with HT-29 cells, the “cellular uptake in HT-29 cells” value was “higher accumulation”.

Consider `COc1cccc2c1C(=O)c1c(O)c3c(c(O)c1C2=O)C[C@@](O)(C(C)=NOCC(=O)NCC(=O)N[C@@H](Cc1ccccc1)C(=O)N[C@@H](CC(C)C)C(=O)NCC(=O)N[C@@H](CCCCNC(=O)CNC(=O)CNC(=O)[C@@H]1CSCC(=O)N[C@@H](CC(N)=O)C(=O)NCC(=O)N[C@@H](CCCNC(=N)N)C(=O)N1)C(N)=O)C[C@@H]3O[C@H]1C[C@H](N)[C@H](O)[C@H](C)O1` [compound 1, Dau = GFLGK([CH2CO-NGRC]GG)-NH2] (I: {CH2CO}-NGRCGG / II: {Daunorubicin(13-NOCH2CO)}-GFLGK-NH2; amide I:C-II:5; thioether I:N-I:4), for which the “time within which the conjugate decomposed in lysosomal homogenate” value in the series “Lysosomal degradation” is at most 6 h. Also, the “cellular uptake in HT-1080 cells” value in the series on HT-1080 cells is “did not show significant cellular uptake”. For the same compound, the “cellular uptake in HT-29 cells” value in the series with HT-29 cells was “did not show significant cellular uptake”.

For the compound `COc1cccc2c1C(=O)c1c(O)c3c(c(O)c1C2=O)C[C@@](O)(C(C)=NOCC(=O)NCC(=O)N[C@@H](Cc1ccccc1)C(=O)N[C@@H](CC(C)C)C(=O)NCC(=O)N[C@@H](CCCCNC(=O)CNC(=O)CNC(=O)[C@@H]1CSCC(=O)N[C@@H](CCCCN)C(=O)N[C@@H](CC(N)=O)C(=O)NCC(=O)N[C@@H](CCCNC(=N)N)C(=O)N1)C(N)=O)C[C@@H]3O[C@H]1C[C@H](N)[C@H](O)[C@H](C)O1` [compound 3, Dau = GFLGK([CH2CO-KNGRC]GG)-NH2] (I: {CH2CO}-KNGRCGG / II: {Daunorubicin(13-NOCH2CO)}-GFLGK-NH2; amide I:C-II:5; thioether I:N-I:5), the “time within which the conjugate decomposed in lysosomal homogenate” value in “Lysosomal degradation” is at most 6 h. Besides, the “cellular uptake in HT-1080 cells” value in the series with HT-1080 cells was “moderate uptake”. For the same compound, the “cellular uptake in HT-29 cells” value in the series with HT-29 cells is “moderate uptake”.
